B1: Escherichia coli MnmE-Δ450–454 (domain or fragment, E. coli, UniProt P25522 1-449, looked up)
chain: MSDNDTIVAQATPPGRGGVGILRISGFKAREVAETVLGKLPKPRYADYLPFKDADGSVLDQGIALWFPGPNSFTGEDVLELQGHGGPVILDLLLKRILTIPGLRIARPGEFSERAFLNDKLDLAQAEAIADLIDASSEQAARSALNSLQGAFSARVNHLVEALTHLRIYVEAAIDFPDEEIDFLSDGKIEAQLNDVIADLDAVRAEARQGSLLREGMKVVIAGRPNAGKSSLLNALAGREAAIVTDIAGTTRDVLREHIHIDGMPLHIIDTAGLREASDEVERIGIERAWQEIEQADRVLFMVDGTTTDAVDPAEIWPEFIARLPAKLPITVVRNKADITGETLGMSEVNGHALIRLSARTGEGVDVLRNHLKQSMGFDTNMEGGFLARRRHLQALEQAAEHLQQGKAQLLGAWAGELLAEELRLAQQNLSEITGEFTSDDLLGRIFSS
notes: E. coli MnmE without the C-terminal conserved 450FCIGK454 motif (deletion of residues 450-454; K454 is the C-terminal residue of MnmE); C-terminal truncation of m1; made from the wild-type open reading frame in pET20b; source: E. coli BL21(DE3), purified (Ni-NTA IMAC, alkaline phosphatase treatment, second Ni-NTA, Superdex200 SEC)
B2: Escherichia coli MnmE (wild type) (enzyme, E. coli, UniProt P25522 1-454, looked up)
chain: MSDNDTIVAQATPPGRGGVGILRISGFKAREVAETVLGKLPKPRYADYLPFKDADGSVLDQGIALWFPGPNSFTGEDVLELQGHGGPVILDLLLKRILTIPGLRIARPGEFSERAFLNDKLDLAQAEAIADLIDASSEQAARSALNSLQGAFSARVNHLVEALTHLRIYVEAAIDFPDEEIDFLSDGKIEAQLNDVIADLDAVRAEARQGSLLREGMKVVIAGRPNAGKSSLLNALAGREAAIVTDIAGTTRDVLREHIHIDGMPLHIIDTAGLREASDEVERIGIERAWQEIEQADRVLFMVDGTTTDAVDPAEIWPEFIARLPAKLPITVVRNKADITGETLGMSEVNGHALIRLSARTGEGVDVLRNHLKQSMGFDTNMEGGFLARRRHLQALEQAAEHLQQGKAQLLGAWAGELLAEELRLAQQNLSEITGEFTSDDLLGRIFSSFCIGK
notes: E. coli MnmE, wild-type open reading frame in pET20b, preceded by an N-terminal His-tag and TEV cleavage site; 454 residues (K454 is the C-terminal residue); Homodimer (α2); also called EcMnmE; α2; source: E. coli BL21(DE3), purified (Ni-NTA IMAC, alkaline phosphatase treatment, second Ni-NTA, Superdex200 SEC)
B3: Escherichia coli MnmE K454A (enzyme, E. coli, UniProt P25522 1-454, looked up)
chain: B2 chain with K454A
notes: E. coli MnmE point variant made by QuikChange from the wild-type open reading frame in pET20b; Variant of m1; source: E. coli BL21(DE3), purified (Ni-NTA IMAC, alkaline phosphatase treatment, second Ni-NTA, Superdex200 SEC)
B4: Escherichia coli MnmE-Δ436–454 (domain or fragment, E. coli, UniProt P25522 1-435, looked up)
chain: MSDNDTIVAQATPPGRGGVGILRISGFKAREVAETVLGKLPKPRYADYLPFKDADGSVLDQGIALWFPGPNSFTGEDVLELQGHGGPVILDLLLKRILTIPGLRIARPGEFSERAFLNDKLDLAQAEAIADLIDASSEQAARSALNSLQGAFSARVNHLVEALTHLRIYVEAAIDFPDEEIDFLSDGKIEAQLNDVIADLDAVRAEARQGSLLREGMKVVIAGRPNAGKSSLLNALAGREAAIVTDIAGTTRDVLREHIHIDGMPLHIIDTAGLREASDEVERIGIERAWQEIEQADRVLFMVDGTTTDAVDPAEIWPEFIARLPAKLPITVVRNKADITGETLGMSEVNGHALIRLSARTGEGVDVLRNHLKQSMGFDTNMEGGFLARRRHLQALEQAAEHLQQGKAQLLGAWAGELLAEELRLAQQNLSEITG
notes: E. coli MnmE without the entire C-terminal swivel helix (deletion of residues 436-454; K454 is the C-terminal residue of MnmE); C-terminal truncation of m1; made from the wild-type open reading frame in pET20b; source: E. coli BL21(DE3), purified (Ni-NTA IMAC, alkaline phosphatase treatment, second Ni-NTA, Superdex200 SEC)
B5: Escherichia coli MnmG (enzyme, E. coli)
chain: MFYPDPFDVIIIGGGHAGTEAAMAAARMGQQTLLLTHNIDTLGQMSCNPAIGGIGKGHLVKEVDALGGLMAKAIDQAGIQFRILNASKGPAVRATRAQADRVLYRQAVRTALENQPNLMIFQQAVEDLIVENDRVVGAVTQMGLKFRAKAVVLTVGTFLDGKIHIGLDNYSGGRAGDPPSIPLSRRLRELPLRVGRLKTGTPPRIDARTIDFSVLAQQHGDNPMPVFSFMGNASQHPQQVPCYITHTNEKTHDVIRSNLDRSPMYAGVIEGVGPRYCPSIEDKVMRFADRNQHQIFLEPEGLTSNEIYPNGISTSLPFDVQMQIVRSMQGMENAKIVRPGYAIEYDFFDPRDLKPTLESKFIQGLFFAGQINGTTGYEEAAAQGLLAGLNAARLSADKEGWAPARSQAYLGVLVDDLCTLGTKEPYRMFTSRAEYRLMLREDNADLRLTEIGRELGLVDDERWARFNEKLENIERERQRLKSTWVTPSAEAAAEVNAHLTAPLSREASGEDLLRRPEMTYEKLTTLTPFAPALTDEQAAEQVEIQVKYEGYIARQQDEIEKQLRNENTLLPATLDYRQVSGLSNEVIAKLNDHKPASIGQASRISGVTPAAISILLVWLKKQGMLRRSA
notes: E. coli MnmG in pET14b, preceded by an N-terminal His-tag and TEV cleavage site; domains described over residues 1-629; Homodimer (β2); also called EcMnmG; β2; source: E. coli BL21(DE3), purified (Ni-NTA IMAC, Superdex200 SEC)

Series [1] addresses B5. Nature of the series: ITC; wild-type or mutant MnmE 700 μM in the syringe, MnmG 70 μM in the cell; with 1 mM FAD and 1 mM GppNHp; 25°C; 20 mM HEPES pH 7.5, 75 mM NaCl, 75 mM KCl, 5 mM MgCl2, 2 mM β-mercaptoethanol; one set of sites model. The following applies: both partners purified. On the technique in general: In ITC the heat of successive injections is recorded.
Series [2] concerns the target B5. Nature of the series: ITC; MnmE 700 μM in the syringe, MnmG 70 μM in the cell; with 1 mM FAD; 25°C; 20 mM HEPES pH 7.5, 75 mM NaCl, 75 mM KCl, 5 mM MgCl2, 2 mM β-mercaptoethanol; one set of sites model. The conditions noted are these: both partners purified.
For series [3], the target named is B5. Nature of the series: ITC; MnmE 700 μM in the syringe, MnmG 70 μM in the cell; no ligands; 25°C; 20 mM HEPES pH 7.5, 75 mM NaCl, 75 mM KCl, 5 mM MgCl2, 2 mM β-mercaptoethanol; one set of sites model. The conditions noted are these: both partners purified.
Series [4] concerns the molecule itself. In words: cryo-EM structure; MnmE–MnmG complex formed with GppNHp, FAD and K+ (20 mM HEPES pH 7.5, 150 mM KCl, 5 mM MgCl2, 2 mM DTT), purified by SEC; α2β2 and α4β2 classes. Background: Size exclusion chromatography separates by hydrodynamic size, large species first.
Series [5] has as its target B5. In words: ITC; MnmE 700 μM in the syringe, MnmG 70 μM in the cell; with 1 mM GppNHp; 25°C; 20 mM HEPES pH 7.5, 75 mM NaCl, 75 mM KCl, 5 mM MgCl2, 2 mM β-mercaptoethanol; one set of sites model. The following applies: both partners purified.

Data on 5 molecules can be found in article PMC12397908, “Cryo-EM structures of the MnmE–MnmG complex reveal large conformational changes and provide new insights into the mechanism of tRNA modification” (Nucleic Acids Research, 2025).

Numbering of substitutions follows the chain as printed.

B1: in the series with Escherichia coli MnmG [1], the Kd is 1700 nM and the “stoichiometry N” value was 0.6.
Take B2: the dissociation constant (Kd) with Escherichia coli MnmG [2] was 800 nM; with Escherichia coli MnmG [3], 3400 nM; with Escherichia coli MnmG [1], 420 nM; in the series with Escherichia coli MnmG [5] it was 770 nM. Also, the “stoichiometry N” value is 0.8 in the series with Escherichia coli MnmG [2]; 0.9 with Escherichia coli MnmG [3]; 0.6 with Escherichia coli MnmG [1]; 2 in series [4]; 1.1 with Escherichia coli MnmG [5].
On to B3, for which, in the series with Escherichia coli MnmG [1], the Kd is 2200 nM and the “stoichiometry N” value came out at 0.5.
B4: in the series with Escherichia coli MnmG [1], binding was put at a Kd of 4100 nM and the “stoichiometry N” value was determined as 0.8.
B5: the “stoichiometry N” value in series [4] is 2.

Usually Kd stands for a measure of binding affinity in units of concentration. Higher therefore signals a looser complex. For orientation: stoichiometry N means a count of units in the complex or per binding partner.
